Source: paper doi:10.1101/2021.09.27.462041

Columns and labels:
Assay in all cases: SPR
[1] = target: H3K27me3 11-mer histone H3 tail peptide
[2] = target: H3K4me3 11-mer histone H3 tail peptide
[3] = target: H3K9me3 11-mer histone H3 tail peptide
[4] = target: H3K36me3 11-mer histone H3 tail peptide

- Kd [1]: 26.5 nM
- Kd [2]: 25.5 nM
- koff [2]: 0.00238 s⁻¹
- Kd [3]: 22.2 nM
- Kd [4]: 32.1 nM
- koff [4]: 0.0024 s⁻¹
B1: DIDO3 PHD domain (domain or fragment)
chain: PNALYCICRQPHNNRFMICCDRCEEWFHGDCVGISEARGRLLERNGEDYICPNCTILQVQ
